Data from the RNAGym collection of RNA variant scans (doi:10.1073/pnas.2313332121).
Fewer inactive variants are shown than the library holds.

B1: TPR 5TU (parent)
chain: GGAUCUUCUCGAUCUAACAAAAAAGACAAAUCUGCCACAAAGCUUGAGAGCAUCUUCGGAUGCAGAGGCGGCAGCCUUCGGUGGCGCGAUAGCGCCAACGUUCUCAACUAUGACACGCAAAACGCGUGCUCCGUUGAAUGGAGUUUAUCAUG

Variants of: B1
Experiment: polymerase ribozyme fitness, log enrichment relative to wild type (log ratio); higher = more active; in vitro selection for triplet polymerase activity
Summary of the method: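 Fitness is a logarithmic measure of how a genotype enriched relative to the wild type, with replicate averages weighted by inverse variance. The logarithm uses base 2, and enrichment came from Illumina sequencing of input and output libraries. Those libraries were PCR-built, transcribed mutants of each subunit of a heterodimeric triplet polymerase ribozyme, passed through one triplicate in vitro selection round that included frozen incubation at −7 °C, gel excision of extended constructs and streptavidin-bead capture. Genotypes were kept only if they had ≥10 input reads and ≥1 read per output.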

Row | Variant | polymerase ribozyme fitness (log ratio)
1 | C5A A22C C38A G71A A89C | ≤ -4.2
2 | C5U A40G C85G | -3.18
3 | C5G C96G G141U | -0.469
4 | U4G C14G A21U A30U C93G C131U G141A | ≤ -4.2
5 | C5U A28U C51G C75G C95U G141U | -4.02
6 | C5G G25U C27G A37G G46A U61A C96U | -4.17
7 | C5G A23G A52U C87G C99A | ≤ -4.2
8 | C5A C36G A49C U61A G84A | ≤ -4.2
9 | U4G A73G G92U A107U A122U | -3.96
10 | U4A G94U U102C | -3.03
11 | C5U A20G A49U G86U | -3.71
12 | C5A A12G G84A G88A A97U C116A | -3.84
13 | A3U A30G G86C C96U | -4
14 | C5G A29U U55G U78A G92C C118U U145A | ≤ -4.2
15 | C5A C14G G59A C85A C118G U139A | ≤ -4.2
16 | C5G A52C C76G G81A A91U | ≤ -4.2
17 | U4G G141U | 0.552
18 | A3U G59A C75U C93A A138G | -3.95
19 | A3U C96U | -0.0857
20 | U4G A47C C51U G80A G84A G94U A97U | ≤ -4.2
21 | C5G U135C | -2.4

Row | Variant | polymerase ribozyme fitness (log ratio)
22 | C5A G74A G81U U139G | -3.53
23 | C5A C93A | -1.25
24 | C5A U6G A28U A52C G84C A110G | ≤ -4.2
25 | U4A U61A G94A | -1.99
26 | C5A A26U G50A C51U A106C U139G | ≤ -4.2
27 | A3U U9A A23C C27G G81A C85G C132A | ≤ -4.2
28 | A3U A30G A49C | ≤ -4.2
29 | U4A C18G A19U U31A U135C | -4.1
30 | A3U U15A U82C G86A A91G | -3.4
31 | U4C A20U A64C C85G U101C C118U | ≤ -4.2
32 | U4G U61A G88A | ≤ -4.2
33 | U4C U53A C76G U90C U145C | ≤ -4.2
34 | U4G G140C | ≤ -4.2
35 | C5G A17G U61A G67A C93A C95U G140U | ≤ -4.2
36 | U4C C51A U82A C96A | ≤ -4.2
37 | U4G A26G U33A C54G G86A G88U U90G | ≤ -4.2
38 | U4A A41G G84A U139G U146C | -0.701
39 | C5G C108U | -3.65
40 | A3U A47C | -0.9
41 | C5A A23C C85U G88A C105U A120G | ≤ -4.2
42 | U4A A22C C96G A119U C149U | -3.08

Row | Variant | polymerase ribozyme fitness (log ratio)
43 | C5U A37U C51U | -1.26
44 | C5A G42C G84C C85A G86A G92C | ≤ -4.2
45 | C5G A24C G48A A52C C85U G140U | ≤ -4.2
46 | A3U U135G | -4.19
47 | C5G A37U C43U A98G A121G | ≤ -4.2
48 | C5G G59A | -0.858
49 | U4A A16U A29U U55G C72G U127A | ≤ -4.2
50 | C5A A64G A66G U134G | ≤ -4.2
51 | C5U A21G U139C U146A | -3.99
52 | A3U C87A | -3.25
53 | A3U U7G A39C U56A G83C C132U U144C U145C C149A | ≤ -4.2
54 | A3U U13G | 0.0481
55 | A3U C32A U45G G50C U53A A60G G94A A98G G141U | ≤ -4.2
56 | A3U U15A A21U U31A C85G | -0.347
57 | U4G C54G G80C G92U A115C | ≤ -4.2
58 | A3U C85U | -0.254
59 | C5A A17C G83A G143U | -2.68
60 | C5G G141A | 0.249
61 | A3U U33A C43U G84A C85A G140C U146C | ≤ -4.2
62 | C5G U44A G59A A121C A122G | ≤ -4.2
63 | U4A C8U A29C A41C G58A C75A C79U G83A | ≤ -4.2

Row | Variant | polymerase ribozyme fitness (log ratio)
64 | U4G U6A U13A C14A U33A A39G | ≤ -4.2
65 | C5A C75U U90C A91G A150G | ≤ -4.2
66 | A3U A30U G34U G58A C87G C95U C131G | ≤ -4.2
67 | U4A A16U A17U A30C A39G A49U C87G A89C G133C U139C | ≤ -4.2
68 | U4G C8G A19G A49U U53C A73G G83A A98G A113C A115U | ≤ -4.2
69 | C5G G84A A147C | -0.43
70 | A3U A39G G58C C96U | -3.39
71 | U4A A41C U61A C63G A64C C72A C96G | ≤ -4.2
72 | U4G G46A | -0.673
73 | A3U G83A A119G G141C | -1.17
74 | U4C C75A C85G C99G U145G A147U | ≤ -4.2
75 | U4G A12C U15A G80C U90G G126C G143C | ≤ -4.2
76 | C5A A29C G50U C51U G88A U90C | ≤ -4.2
77 | C5G C18G A41C G152U | -3.98
78 | C5U A16U C54U C87U G117A A119U | -1.75
79 | A3U A73G C79G C93A C116U G117U A138U | ≤ -4.2
80 | C5A A24U A40C A52C | -0.908
81 | C5A A52C A73U U82C C85U G136U | ≤ -4.2
82 | U4A U7A G42C G48C A66C G67A C72U U101G | ≤ -4.2
83 | C5A C8U U9G C51U C85U A106U A107C C118A | ≤ -4.2
